Data on 14 molecules can be found in paper PMC9453702, “Structure-function analysis of enterovirus protease 2A in complex with its essential host factor SETD3” (Nature Communications, 2022).

In experiment [1] the target is coxsackievirus B3 protease 2A with C-terminal His6-tag (for biolayer interferometry). Put plainly: biolayer interferometry. The following applies: parent: 0.0051 s-1.
The target of experiment [2] is 2xStrep-tagged catalytically dead CV-B3 2A, expressed in human cells. Put plainly: FLAG affinity purification with label-free quantitative MS. The settings on record: co-transfected CV-B3 2A; four biologically independent experiments; parent: est. 5.5e7; read off a plot.
The target in the next experiment is actin (Homo sapiens) (UniProt P60709). The following applies: cited from earlier work.
Experiment [3] deals with T1, human SETD3, wild type (recombinant, tag cleaved) (human, UniProt Q86TU7 1-594).
T1 construct: SETD3, actin histidine methyltransferase, human; codon-optimised gene in vector 2G-T; also called WT SETD3; SETD3 WT; source: E. coli BL21*(DE3), purified (Glutathione Sepharose 4B, TEV digest, His-Trap FF flow-through; Superdex 200 Increase for BLI)
T1 sequence: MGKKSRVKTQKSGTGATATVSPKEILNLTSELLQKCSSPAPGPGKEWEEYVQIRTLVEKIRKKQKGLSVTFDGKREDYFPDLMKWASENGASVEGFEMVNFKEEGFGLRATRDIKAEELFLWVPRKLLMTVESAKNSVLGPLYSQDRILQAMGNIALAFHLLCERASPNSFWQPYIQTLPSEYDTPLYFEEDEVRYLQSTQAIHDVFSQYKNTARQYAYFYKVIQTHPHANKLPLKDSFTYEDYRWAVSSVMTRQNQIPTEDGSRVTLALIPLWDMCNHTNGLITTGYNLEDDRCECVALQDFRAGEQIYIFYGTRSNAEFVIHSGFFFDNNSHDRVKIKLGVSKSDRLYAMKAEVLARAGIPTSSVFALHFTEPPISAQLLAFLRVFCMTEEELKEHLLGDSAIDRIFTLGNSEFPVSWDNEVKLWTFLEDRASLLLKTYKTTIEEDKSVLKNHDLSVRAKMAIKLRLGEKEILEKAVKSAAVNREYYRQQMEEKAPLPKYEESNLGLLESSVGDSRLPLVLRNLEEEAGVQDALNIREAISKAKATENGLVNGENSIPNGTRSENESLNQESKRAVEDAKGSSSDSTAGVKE
The experiment in a line: BLI; competition: His-tagged 2A on Ni-NTA biosensors, 3-fold dilution series of actin peptide (40 nM to 10 µM) with SETD3 constant at 310 nM; 20 mM Tris/HCl pH 8.0, 150 mM NaCl, 5% glycerol, 1 mM DTT; maximum binding against peptide concentration. The following applies: both partners purified. For orientation: BLI is a label-free optical method that tracks binding on a fibre tip over time.

The target of experiment [4] is coxsackievirus B3 (Nancy strain) protease 2A, C107A (recombinant, tag cleaved) (coxsackievirus B3 (Nancy strain)).
The target of experiment [5] is coxsackievirus B3 protease 2A with C-terminal His6-tag (for biolayer interferometry) (coxsackievirus B3 (Nancy strain)). The experiment in a line: BLI; Octet RED384; His-tagged 2A loaded on Ni-NTA biosensors at 20 µg/ml, SETD3 variants in solution at several concentrations; 20 mM Tris/HCl pH 8.0, 150 mM NaCl, 5% glycerol, 1 mM DTT; global fit with Rmax unlinked.

As usually defined, the koff is the rate constant with which the complex falls apart. As to “human SETD3, wild type (recombinant, tag cleaved) (from UniProt Q86TU7) Q257A; V266D”, the koff in experiment [1] turned out to be 0.45 s⁻¹. With “FLAG-tagged SETD3, wild type, expressed in human cells (from UniProt Q86TU7) Q257A; V266D; Y288P; G361R”, the response in experiment [2] is 450000. Consider “FLAG-tagged SETD3, wild type, expressed in human cells (from UniProt Q86TU7) Q257A; V266D”, for which, in experiment [2], the response was 1.7e+06.

The term Kd denotes the equilibrium constant for the complex coming apart. Turning to SETD3 (from UniProt Q86TU7), the Kd with actin (Homo sapiens) was 170 nM. In the case of “human SETD3, wild type (recombinant, tag cleaved) (from UniProt Q86TU7) Y288P”, the koff in experiment [1] came out at 0.32 s⁻¹. Same read-out and setting: under “human SETD3, wild type (recombinant, tag cleaved) (from UniProt Q86TU7) G361R; F409A” stands 0.0131 s⁻¹; under “human SETD3, wild type (recombinant, tag cleaved) (from UniProt Q86TU7) G361R”, 0.0116 s⁻¹. As for “FLAG-tagged SETD3, wild type, expressed in human cells (from UniProt Q86TU7) Q257A; V266D; Y288P”, the response in experiment [2] came to 900000.

B1: synthetic actin peptide, residues 66-81, H73L (peptide)
peptide: TLKYPIELGIVTNWDD
notes: also called actin peptide 66-81 with His73 replaced by leucine; source: synthetic peptide
The term IC50 denotes the concentration that inhibits the measured activity by half. Consider B1, for which, in experiment [3], the 50% inhibitory concentration (IC50) was in the range of 1500 to 3400 nM.

B2: human SETD3, wild type (recombinant, tag cleaved) (enzyme)
chain: MGKKSRVKTQKSGTGATATVSPKEILNLTSELLQKCSSPAPGPGKEWEEYVQIRTLVEKIRKKQKGLSVTFDGKREDYFPDLMKWASENGASVEGFEMVNFKEEGFGLRATRDIKAEELFLWVPRKLLMTVESAKNSVLGPLYSQDRILQAMGNIALAFHLLCERASPNSFWQPYIQTLPSEYDTPLYFEEDEVRYLQSTQAIHDVFSQYKNTARQYAYFYKVIQTHPHANKLPLKDSFTYEDYRWAVSSVMTRQNQIPTEDGSRVTLALIPLWDMCNHTNGLITTGYNLEDDRCECVALQDFRAGEQIYIFYGTRSNAEFVIHSGFFFDNNSHDRVKIKLGVSKSDRLYAMKAEVLARAGIPTSSVFALHFTEPPISAQLLAFLRVFCMTEEELKEHLLGDSAIDRIFTLGNSEFPVSWDNEVKLWTFLEDRASLLLKTYKTTIEEDKSVLKNHDLSVRAKMAIKLRLGEKEILEKAVKSAAVNREYYRQQMEEKAPLPKYEESNLGLLESSVGDSRLPLVLRNLEEEAGVQDALNIREAISKAKATENGLVNGENSIPNGTRSENESLNQESKRAVEDAKGSSSDSTAGVKE
With B2, in experiment [4], the 2A protease activity towards a FRET peptide of the VP1-2A cis-cleavage site; catalytically active WT 2A alone against its complex with WT SETD3 stood at 1.5 fold and the kcat/Km of catalytically active WT 2A in complex with WT SETD3 towards a FRET peptide of the VP1-2A cis-cleavage site (1.5 mM^-1 min^-1 for 2A alone) worked out at 38 M⁻¹ s⁻¹. For the same molecule, the Kd in experiment [5] amounted to 47 nM.

B3: human SETD3 G361R (recombinant, tag cleaved) (enzyme)
chain: MGKKSRVKTQKSGTGATATVSPKEILNLTSELLQKCSSPAPGPGKEWEEYVQIRTLVEKIRKKQKGLSVTFDGKREDYFPDLMKWASENGASVEGFEMVNFKEEGFGLRATRDIKAEELFLWVPRKLLMTVESAKNSVLGPLYSQDRILQAMGNIALAFHLLCERASPNSFWQPYIQTLPSEYDTPLYFEEDEVRYLQSTQAIHDVFSQYKNTARQYAYFYKVIQTHPHANKLPLKDSFTYEDYRWAVSSVMTRQNQIPTEDGSRVTLALIPLWDMCNHTNGLITTGYNLEDDRCECVALQDFRAGEQIYIFYGTRSNAEFVIHSGFFFDNNSHDRVKIKLGVSKSDRLYAMKAEVLARARIPTSSVFALHFTEPPISAQLLAFLRVFCMTEEELKEHLLGDSAIDRIFTLGNSEFPVSWDNEVKLWTFLEDRASLLLKTYKTTIEEDKSVLKNHDLSVRAKMAIKLRLGEKEILEKAVKSAAVNREYYRQQMEEKAPLPKYEESNLGLLESSVGDSRLPLVLRNLEEEAGVQDALNIREAISKAKATENGLVNGENSIPNGTRSENESLNQESKRAVEDAKGSSSDSTAGVKE
Molecule B3 gave an equilibrium dissociation constant (Kd) in experiment [5] of 110 nM.

B4: human SETD3 Y288P (recombinant, tag cleaved) (enzyme)
chain: MGKKSRVKTQKSGTGATATVSPKEILNLTSELLQKCSSPAPGPGKEWEEYVQIRTLVEKIRKKQKGLSVTFDGKREDYFPDLMKWASENGASVEGFEMVNFKEEGFGLRATRDIKAEELFLWVPRKLLMTVESAKNSVLGPLYSQDRILQAMGNIALAFHLLCERASPNSFWQPYIQTLPSEYDTPLYFEEDEVRYLQSTQAIHDVFSQYKNTARQYAYFYKVIQTHPHANKLPLKDSFTYEDYRWAVSSVMTRQNQIPTEDGSRVTLALIPLWDMCNHTNGLITTGPNLEDDRCECVALQDFRAGEQIYIFYGTRSNAEFVIHSGFFFDNNSHDRVKIKLGVSKSDRLYAMKAEVLARAGIPTSSVFALHFTEPPISAQLLAFLRVFCMTEEELKEHLLGDSAIDRIFTLGNSEFPVSWDNEVKLWTFLEDRASLLLKTYKTTIEEDKSVLKNHDLSVRAKMAIKLRLGEKEILEKAVKSAAVNREYYRQQMEEKAPLPKYEESNLGLLESSVGDSRLPLVLRNLEEEAGVQDALNIREAISKAKATENGLVNGENSIPNGTRSENESLNQESKRAVEDAKGSSSDSTAGVKE
As to B4, the Kd in experiment [5] is 2500 nM.

B5: human SETD3 Q257A + V266D (recombinant, tag cleaved) (enzyme)
chain: MGKKSRVKTQKSGTGATATVSPKEILNLTSELLQKCSSPAPGPGKEWEEYVQIRTLVEKIRKKQKGLSVTFDGKREDYFPDLMKWASENGASVEGFEMVNFKEEGFGLRATRDIKAEELFLWVPRKLLMTVESAKNSVLGPLYSQDRILQAMGNIALAFHLLCERASPNSFWQPYIQTLPSEYDTPLYFEEDEVRYLQSTQAIHDVFSQYKNTARQYAYFYKVIQTHPHANKLPLKDSFTYEDYRWAVSSVMTRQNAIPTEDGSRDTLALIPLWDMCNHTNGLITTGYNLEDDRCECVALQDFRAGEQIYIFYGTRSNAEFVIHSGFFFDNNSHDRVKIKLGVSKSDRLYAMKAEVLARAGIPTSSVFALHFTEPPISAQLLAFLRVFCMTEEELKEHLLGDSAIDRIFTLGNSEFPVSWDNEVKLWTFLEDRASLLLKTYKTTIEEDKSVLKNHDLSVRAKMAIKLRLGEKEILEKAVKSAAVNREYYRQQMEEKAPLPKYEESNLGLLESSVGDSRLPLVLRNLEEEAGVQDALNIREAISKAKATENGLVNGENSIPNGTRSENESLNQESKRAVEDAKGSSSDSTAGVKE
In turn, B5 displayed a dissociation constant Kd in experiment [5] of 10000 nM.

B6: human SETD3 G361R + F409A (recombinant, tag cleaved) (enzyme)
chain: MGKKSRVKTQKSGTGATATVSPKEILNLTSELLQKCSSPAPGPGKEWEEYVQIRTLVEKIRKKQKGLSVTFDGKREDYFPDLMKWASENGASVEGFEMVNFKEEGFGLRATRDIKAEELFLWVPRKLLMTVESAKNSVLGPLYSQDRILQAMGNIALAFHLLCERASPNSFWQPYIQTLPSEYDTPLYFEEDEVRYLQSTQAIHDVFSQYKNTARQYAYFYKVIQTHPHANKLPLKDSFTYEDYRWAVSSVMTRQNQIPTEDGSRVTLALIPLWDMCNHTNGLITTGYNLEDDRCECVALQDFRAGEQIYIFYGTRSNAEFVIHSGFFFDNNSHDRVKIKLGVSKSDRLYAMKAEVLARARIPTSSVFALHFTEPPISAQLLAFLRVFCMTEEELKEHLLGDSAIDRIATLGNSEFPVSWDNEVKLWTFLEDRASLLLKTYKTTIEEDKSVLKNHDLSVRAKMAIKLRLGEKEILEKAVKSAAVNREYYRQQMEEKAPLPKYEESNLGLLESSVGDSRLPLVLRNLEEEAGVQDALNIREAISKAKATENGLVNGENSIPNGTRSENESLNQESKRAVEDAKGSSSDSTAGVKE
B6 yielded a Kd in experiment [5] of 132 nM.
